# Numbering of substitutions follows the chain as printed.
# T1: human Nectin-4 protein (human, UniProt Q96NY8 32-349)
# T1 construct: Purified protein used for coating in ELISA and as analyte in Octet; also called human Nectin-4 antigen
# T1 sequence (looked up): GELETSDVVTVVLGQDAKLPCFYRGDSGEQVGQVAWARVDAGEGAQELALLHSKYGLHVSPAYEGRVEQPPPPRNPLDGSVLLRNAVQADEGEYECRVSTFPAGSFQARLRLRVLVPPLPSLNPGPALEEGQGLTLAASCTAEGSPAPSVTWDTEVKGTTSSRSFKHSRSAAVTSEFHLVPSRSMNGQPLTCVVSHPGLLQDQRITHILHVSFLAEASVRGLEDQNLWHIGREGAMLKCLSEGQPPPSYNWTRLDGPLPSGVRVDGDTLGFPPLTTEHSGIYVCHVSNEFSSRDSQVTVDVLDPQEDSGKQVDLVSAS
# T2: two IgC domains of human Nectin-4 overexpressed on A549 cells (human, UniProt Q96NY8 148-349, limits assumed)
# T2 construct: domain: two IgC domains; also called A549-Nectin-4-IgCC
# T2 sequence (looked up): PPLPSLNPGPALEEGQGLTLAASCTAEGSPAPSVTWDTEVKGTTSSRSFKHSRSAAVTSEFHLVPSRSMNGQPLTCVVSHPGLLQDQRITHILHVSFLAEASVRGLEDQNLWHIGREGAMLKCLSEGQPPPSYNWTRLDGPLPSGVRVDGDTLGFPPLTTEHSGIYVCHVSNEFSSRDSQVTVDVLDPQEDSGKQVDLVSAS
# B1: anti-human Nectin-4 humanized monoclonal antibody 56HZ (antibody, human IgG1, kappa, V domains shown)
# VH: QVQLQESGPGLVKPSQTLSLTCTVSGYFNSITSDYDWHWIRHHPGKGLEWMGYISFSGRTYYNPSLKSRVTISHDTSKNQFSLKLSSVTAADTAVYYCARGNYDGFDYWGQGTLVTVSS
# VL: DIVLTQSPATLSLSPGERATLSCRASQNIGTSIHWYQHKPGQSPRLLIKFASESISGIPARFSGSGSGTDFTLTISSLEPEDFAVYYCQQSKSWPTYTFGGGTKVEIKR
# notes: Human IgG1 heavy chain constant region, human kappa light chain constant region; expressed in CHO-E cells
# B2: anti-human Nectin-4 humanized monoclonal antibody 74HZ (antibody, human IgG1, kappa, V domains shown)
# VH: QVQLVQSGAEVKKPGSSVKVSCKASGYTFINYWMNWVRQAPGQGLEWIGMIHPSDSATRLNQSFQGRVTLTVDKSTSTAYMELSSLRSEDTAVYYCARWGNFYTVNAWYYFDYWGQGTLVTVSS
# VL: DIVITQSPDSLAVSLGERATINCKSSQTLLNSNTQKNYLAWYQQKPGQSPKLLFYFASTRESGVPDRFSGSGSGTDFTLTISSLQAEDVAVYFCQQHYSTPLTFGQGTKLEIKR
# notes: as for B1
# B3: anti-human Nectin-4 humanized monoclonal antibody 31HZ (antibody, human IgG1, kappa, V domains shown)
# VH: QVQLVQSGAEVKKPGSSVKVSCKASGYTFTDYWMNWVRLAPGQGLEWIGMIHPSDSETRLNQKFQGRVTLTVDKSTSTAYMELSSLRSEDTAVYYCARWDFRIYYAMDYWGQGTLVTVSS
# VL: B2 VL with I2V, T28S, S32T, T34S, F54V, Q106G, L110V
# notes: as for B1
# Target: T1, human Nectin-4 protein
# Experiment: competitive ELISA, coated Nectin-4; competitor biotin-labeled Nectin-1-hFc
# Description: Human Nectin-4 is linked to another Nectin-4 molecule or Nectin-1 molecule through the IgV domain. Because 31HZ, 56HZ and 74HZ all bind to the IgV domain of Nectin-4, the competitive activity of the three antibodies was detected by competitive ELISA. The specific steps were as follows: Nectin-4 protein was diluted to 2 μg/mL with CBS coating solution, 100 μL per well, and incubated at 37° C. for 2 hours; washing was performed once with 300 μL PBST, PBS (2% BSA) was then added, 100 μL per well, and incubation was performed at 37° C. for 2 hours; biotin-labeled Nectin-1-hFc was diluted with PBS (2% BSA) to 20 μg/mL; the antibody to be detected was diluted with PBS (2% BSA), wherein the dilution of 31HZ and 74HZ was started from 3.73 μg/mL, 3-fold dilution, and 9 concentration points, the dilution of 56HZ was started from 1.25 μg/mL, 2-fold dilution, and 10 concentration points; the above two diluted solutions were mixed well in equal volumes, and then added to the corresponding well at 100 μL/well, and incubation was performed at room temperature for 2 hours; washing was performed three times with 300 μL PBST; HRP-streptavidin was diluted with PBS (2% BSA) at a ratio of […], and added to the corresponding well at 100 μL/well, incubation was performed at room temperature for 1 hour; washing was performed five times with 300 μL of PBST; 100 μL of TMB was added to the corresponding well, color development was performed at room temperature for 10 minutes, and then terminated by adding 50 μL of 2N H₂SO₄, and a microplate reader was used for collecting readings at 450 nm.
row,IC50 [ng/mL],Binder
1,26.9,B1
2,27.2,B2
3,27.6,B3

# Target: T1, human Nectin-4 protein
# Experiment: ELISA, coated antigen
# Description: (§1) The affinity of anti-human Nectin-4 humanized monoclonal antibodies to Nectin-4 protein of different species was detected by ELISA.
row,EC50 [ng/mL],Binder
1,9.48,B1
2,8.34,B2
3,3.6,B3

# Target: T3, cynomolgus monkey Nectin-4 protein (cynomolgus monkey)
# T3 construct: also called cynomolgus monkey Nectin-4 antigen
# Experiment: ELISA, coated antigen
# Description: as §1
row,EC50 [ng/mL],Binder
1,9.85,B1
2,6.73,B2
3,4.45,B3

# Target: human Nectin-3 antigen (human, UniProt Q9NQS3 58-404, limits assumed)
# Experiment: ELISA, coated human Nectin-3, anti-human-HRP
# Description: The Nectin family includes members of Nectin-1, Nectin-2, Nectin-3 and Nectin-4, and the members share a sequence identity of about 25%, but have similar structure and function. […] The specific steps were as follows: human Nectin-1, Nectin-2, Nectin-3 and Nectin-4 antigens were diluted to 1 μg/mL with CBS coating solution, coated on an ELISA plate at 100 μL per well, and standed overnight at 4° C.; the liquid in the well was discarded on the next day, and washing was performed once with 300 μL of PBS; 100 μL of PBS (containing 2% BSA) was added, and blocking was performed at 37° C. for 2 hours; 31HZ, 56HZ, 74HZ and Enfortumab antibodies were diluted with PBS (containing 2% BSA), 100 μL was taken and added to the corresponding well, incubated at 37° C. for 2 hours; washing was performed 3 times with 300 μL of PBST; HRP-labeled goat anti-human secondary antibody was diluted at a ratio of 1:10000 with PBS (containing 2% BSA), 100 μL was taken and added to the corresponding well, incubation was performed at 37° C. for 1 hour; washing was performed 5 times with 300 μL of PBST; 100 μL of TMB color development solution was added to the corresponding well, and color development was performed at room temperature for 5-20 minutes; 50 μL of 2N H₂SO₄ was added for stopping, a microplate reader was used for collecting readings at OD450 nm, and the data were imported into Graphpad Prism for curve fitting.
# Sequence of human Nectin-3 antigen (Q9NQS3 58-404 limits assumed): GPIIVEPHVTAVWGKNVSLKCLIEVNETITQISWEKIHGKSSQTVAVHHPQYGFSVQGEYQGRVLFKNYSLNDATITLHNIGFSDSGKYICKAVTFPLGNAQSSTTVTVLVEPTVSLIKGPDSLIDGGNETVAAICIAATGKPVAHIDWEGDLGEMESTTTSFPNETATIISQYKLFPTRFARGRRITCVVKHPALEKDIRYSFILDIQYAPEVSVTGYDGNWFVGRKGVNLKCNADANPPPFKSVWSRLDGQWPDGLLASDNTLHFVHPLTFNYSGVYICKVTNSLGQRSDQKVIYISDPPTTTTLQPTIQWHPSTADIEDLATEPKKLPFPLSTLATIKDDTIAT
row,binding result,Binder
1,no binding,B1
2,no binding (tested: 10000 ng/mL),B2
3,no binding (tested: 10000 ng/mL),B3

# Target: T2, two IgC domains of human Nectin-4 …
# Experiment: flow cytometry on A549-Nectin-4-IgCC cells
# Description: Human Nectin-4 contains one IgV domain and two IgC domains. To determine the binding domain of the anti-human Nectin-4 humanized monoclonal antibodies, an A549 stable cell line A549-Nectin-4-IgV overexpressing Nectin-4 IgV domain, and an A549 stable cell line A549-Nectin-4-IgCC overexpressing two IgC domains of Nectin-4 were constructed, and the binding domains of the antibody to be tested were detected by flow cytometry. The specific steps were as follows: A549-Nectin-4-IgV and A549-Nectin-4-IgCC cells were digested, resuspended by centrifugation, washed twice with PBS; the cells were resuspended with PBS (containing 1% BSA), and spread at 300,000 cells/well into a 96-well tip-bottom plate, 50 μl per well; 50 μL of the antibody to be tested at a final concentration of 40 μg/mL was added to each well, and Human IgG was used as a negative control; after being mixed well, the resulting mixture was reacted in the dark at 4° C. for 1 hour; washing was performed 3 times with PBS, FITC-labeled anti-human Fc secondary antibody (brand: BioLegend, product number: 409322) was added, incubated at 4° C. for 0.5 hours in the dark; washing was performed 3 times with PBS, and detection was carried out using a flow cytometer (flow cytometer brand: Beckman, model: Cytoflex).
row,binding result,Binder
1,no binding,B1
2,no binding,B2
3,no binding,B3

# Source: patent publication US20240228612A1 (SICHUAN KELUN BIOTECH BIOPHARMACEUTICAL, published 2024)
